Patent US11230581B2, “Peptides and combination of peptides for use in immunotherapy against ovarian cancer and other cancers” (Immatics Biotechnologies GmbH, priority 2015, dated 2022)

Target: HLA-A*02:01 (Homo sapiens, UniProt P04439, D140Y/D185E/D98H/E176V/E277Q/G131W/G231S/I119V/I121R/I166T/I218V/L300P/L318F/N151K/N90K/P208A/P217A/Q86G/Q94H/R138H/R169H/T345S)
Assay: MHC binding assay (UV-ligand exchange, β2m ELISA, peptide exchange yield)
Conditions: binding of HLA-class I restricted peptides to HLA-A*02:01, UV-ligand exchange
Procedure, shortened: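 Peptide-MHC complexes formed by UV-ligand exchange, cleaving a UV-sensitive placeholder peptide in favour of the test peptide. Exchange yield measured by ELISA: monomers diluted 100-fold onto streptavidin-coated plates, 1 h 37 °C, detected with 2 ug/ml HRP anti-β2m and TMB, absorbance at 450 nm.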

Substance | Peptide exchange (MHC class I binding score, peptide exchange yield)
437 (SMAPGLVIQAV; listed as Homo sapiens) [compound 437] | “+++” (≥50 = +++)
438 (KLLPLAGLYL; listed as Homo sapiens) [compound 438] | “++++” (≥75% = ++++)
439 (YLLQEIYGI; listed as Homo sapiens) [compound 439] | “+++” (≥50 = +++)
440 (ALADGVTMQV; listed as Homo sapiens) [compound 440] | “++” (≥20% = ++)
441 (ALLENPKMEL; listed as Homo sapiens) [compound 441] | “+++” (≥50 = +++)
442 (GLLGGGGVLGV; listed as Homo sapiens) [compound 442] | “+++” (≥50 = +++)
443 (GLWEIENNPTV; listed as Homo sapiens) [compound 443] | “+++” (≥50 = +++)
444 (GLLRDEALAEV; listed as Homo sapiens) [compound 444] | “+++” (≥50 = +++)
446 (QLIPALAKV; listed as Homo sapiens) [compound 446] | “+++” (≥50 = +++)
447 (QLVPALAKV; listed as Homo sapiens) [compound 447] | “++” (≥20% = ++)
448 (NLLETKLQL; listed as Homo sapiens) [compound 448] | “+++” (≥50 = +++)
449 (KLAEGLDIQL; listed as Homo sapiens) [compound 449] | “+++” (≥50 = +++)
450 (FMIDASVHPTL; listed as Homo sapiens) [compound 450] | “+++” (≥50 = +++)
451 (LLLLDTVTMQV; listed as Homo sapiens) [compound 451] | “++” (≥20% = ++)
452 (ILLEHGADPNL; listed as Homo sapiens) [compound 452] | “+++” (≥50 = +++)
453 (KLLEATSAV; listed as Homo sapiens) [compound 453] | “++” (≥20% = ++)
454 (KLPPPPPQA; listed as Homo sapiens) [compound 454] | “+++” (≥50 = +++)
455 (SLLKEPQKVQL; listed as Homo sapiens) [compound 455] | “++” (≥20% = ++)
456 (LLIGHLERV; listed as Homo sapiens) [compound 456] | “+++” (≥50 = +++)
457 (SLLPGNLVEKV; listed as Homo sapiens) [compound 457] | “+++” (≥50 = +++)
458 (SLIDKLYNI; listed as Homo sapiens) [compound 458] | “++” (≥20% = ++)

Substance | Peptide exchange (MHC class I binding score, peptide exchange yield)
459 (ALITEVVRL; listed as Homo sapiens) [compound 459] | “++” (≥20% = ++)
460 (AMLEKNYKL; listed as Homo sapiens) [compound 460] | “++++” (≥75% = ++++)
461 (VMFRTPLASV; listed as Homo sapiens) [compound 461] | “++” (≥20% = ++)
462 (KLAKQPETV; listed as Homo sapiens) [compound 462] | “+++” (≥50 = +++)
463 (SLVESHLSDQLTL; listed as Homo sapiens) [compound 463] | “+++” (≥50 = +++)
464 (ALNDCIYSV; listed as Homo sapiens) [compound 464] | “+++” (≥50 = +++)
465 (QLCDLNAEL; listed as Homo sapiens) [compound 465] | “+++” (≥50 = +++)
466 (VLIANLEKL; listed as Homo sapiens) [compound 466] | “++++” (≥75% = ++++)
467 (FLAKDFNFL; listed as Homo sapiens) [compound 467] | “+++” (≥50 = +++)
468 (YLRSVGDGETV; listed as Homo sapiens) [compound 468] | “+++” (≥50 = +++)
469 (YLASDEITTV; listed as Homo sapiens) [compound 469] | “+++” (≥50 = +++)
471 (YLYNNMIAKI; listed as Homo sapiens) [compound 471] | “+++” (≥50 = +++)
472 (KLLEVSDDPQV; listed as Homo sapiens) [compound 472] | “+++” (≥50 = +++)
473 (AMATESILHFA; listed as Homo sapiens) [compound 473] | “+++” (≥50 = +++)
474 (YLDPALELGPRNV; listed as Homo sapiens) [compound 474] | “+++” (≥50 = +++)
475 (LLLNEEALAQI; listed as Homo sapiens) [compound 475] | “+++” (≥50 = +++)
476 (ALMERTGYSMV; listed as Homo sapiens) [compound 476] | “+++” (≥50 = +++)
477 (ALLPASGQIAL; listed as Homo sapiens) [compound 477] | “+++” (≥50 = +++)
478 (YLLHEKLNL; listed as Homo sapiens) [compound 478] | “+++” (≥50 = +++)
479 (SLFGNSGILENV; listed as Homo sapiens) [compound 479] | “+++” (≥50 = +++)
480 (ALLEDSCHYL; listed as Homo sapiens) [compound 480] | “+++” (≥50 = +++)

Substance | Peptide exchange (MHC class I binding score, peptide exchange yield)
481 (GLIEDYEALL; listed as Homo sapiens) [compound 481] | “+++” (≥50 = +++)
484 (SLIEKVTQL; listed as Homo sapiens) [compound 484] | “+++” (≥50 = +++)
485 (NVPDSFNEV; listed as Homo sapiens) [compound 485] | “+++” (≥50 = +++)
486 (AVMESIQGV; listed as Homo sapiens) [compound 486] | “+++” (≥50 = +++)
487 (LLINSVFHV; listed as Homo sapiens) [compound 487] | “+++” (≥50 = +++)
488 (FLAEDPKVTL; listed as Homo sapiens) [compound 488] | “+++” (≥50 = +++)
489 (KMWEELPEVV; listed as Homo sapiens) [compound 489] | “+++” (≥50 = +++)
490 (FLLQHVQEL; listed as Homo sapiens) [compound 490] | “+++” (≥50 = +++)
491 (GLNDRSDAV; listed as Homo sapiens) [compound 491] | “++” (≥20% = ++)
492 (SLFDGFADGLGV; listed as Homo sapiens) [compound 492] | “+++” (≥50 = +++)
493 (GLLGEKTQDLIGV; listed as Homo sapiens) [compound 493] | “+++” (≥50 = +++)
494 (ALQPEPIKV; listed as Homo sapiens) [compound 494] | “++” (≥20% = ++)
495 (FIFSEKPVFV; listed as Homo sapiens) [compound 495] | “+++” (≥50 = +++)
496 (FLVEKQPPQV; listed as Homo sapiens) [compound 496] | “+++” (≥50 = +++)
497 (GLLEKLTAI; listed as Homo sapiens) [compound 497] | “+++” (≥50 = +++)
498 (KLWTGGLDNTV; listed as Homo sapiens) [compound 498] | “+++” (≥50 = +++)
499 (KIFDIDEAEEGV; listed as Homo sapiens) [compound 499] | “++” (≥20% = ++)
500 (SLMEDQVLQL; listed as Homo sapiens) [compound 500] | “+++” (≥50 = +++)
501 (LLDPNVKSIFV; listed as Homo sapiens) [compound 501] | “+++” (≥50 = +++)
